From doi:10.1101/2024.08.12.607668 (bioRxiv, 2024)
Values joined by “and” are separate entries in the source; they are usually repeats but may differ in a detail not shown here. Equal entries are not always repeated. Where two headings read alike, the source gives them in different places. Blank lines part the entries; values can stand above or below the molecule they belong to.

B5: AbrB from B. subtilis 168, full-length, His6-tagged (natural protein, UniProt P08874 1-96, looked up)
chain: MFMKSTGIVRKVDELGRVVIPIELRRTLGIAEKDALEIYVDDEKIILKKYKPNMTCQVTGEVSDDNLKLAGGKLVLSKEGAEQIISEIQNQLQNLK

How the values were obtained:
[1] = biological target: AbrB from B. amyloliquefaciens FZB45, full-length, His6-tagged (B. amyloliquefaciens FZB45); experiment: SEC
[2] = biological target: full-length AbrB; experiment: SPR
[3] = biological target: AbrB from B. amyloliquefaciens FZB45, full-length, His6-tagged (B. amyloliquefaciens FZB45); experiment: SPR
[4] = biological target: AbrB from B. amyloliquefaciens FZB45, full-length, His6-tagged (B. amyloliquefaciens FZB45); experiment: SPR; remark: listed apart in the source
[5] = biological target: the molecule itself; experiment: SEC
[6] = biological target: AbrB from B. amyloliquefaciens FZB45, full-length, His6-tagged (B. amyloliquefaciens FZB45); experiment: native gel or EMSA
[7] = biological target: AbrB from B. amyloliquefaciens FZB45, full-length, His6-tagged (B. amyloliquefaciens FZB45); experiment: SPR; remark: listed apart in the source
[8] = biological target: T1, Truncated AbrB, N-terminal DNA-binding domain (AbrBN) from B. subtilis 168, His6-tagged (B. subtilis 168); experiment: SPR
T1 sequence (P08874 whole entry, looked up): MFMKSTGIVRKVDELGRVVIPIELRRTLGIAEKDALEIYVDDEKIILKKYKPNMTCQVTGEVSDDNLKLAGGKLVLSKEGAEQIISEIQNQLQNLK

[9] = biological target: B5; experiment: native gel or EMSA
[10] = biological target: B5; experiment: SPR
[11] = biological target: the molecule itself; experiment: SAXS

stoichiometry N [1]: 4
Molecule: AbrB from B. amyloliquefaciens FZB45, full-length, His6-tagged (natural protein)

ka1 (two-state reaction model, first reaction) [2]: 132000 M⁻¹ s⁻¹ and 158000 M⁻¹ s⁻¹
kd1 (two-state reaction model, first reaction) [2]: 0.0955 s⁻¹ and 0.157 s⁻¹
Molecule: AbbA

KD1 (two-state reaction model, first reaction) [3]: 791 nM
Kd [3]: 0.0689 µM
Kd [4]: 0.0314 µM
stoichiometry N (AbbA dimers per AbrB tetramer) [6]: 2
Kd [7]: 1.14 µM and 1.24 µM
B1: AbbA from B. amyloliquefaciens FZB45 as run on analytical FPLC (natural protein, UniProt A0A9P1JGI2 1-63, looked up)
chain: MSLIGERFTEEEQKLLLNILINHEYAIELLTSEINDIEAGSKSVDGTTYKKLVTLYDRFRNEN
stoichiometry N [5]: 2

Kd [8]: 3.7 µM
stoichiometry N [9]: ~2 AbbA dimers per AbrB tetramer
Kd [10]: 0.448 µM
B2: AbrB antirepressor AbbA from B. subtilis 168, His6-tagged (natural protein, UniProt O31697 1-65, looked up)
chain: MRMSLIGERFTEEEQKLLLNILINHEYAIELLSSEINDIETGTKNVDGTTYKKLVTLYDRFRFEN

B3: AbbA from B. subtilis 168 as run on analytical FPLC (natural protein, UniProt O31697 1-65, looked up)
chain: MRMSLIGERFTEEEQKLLLNILINHEYAIELLSSEINDIETGTKNVDGTTYKKLVTLYDRFRFEN
stoichiometry N [5]: 2

B4: Full-length AbrB as measured by SAXS (natural protein)
chain: MKSTGIVRKVDELGRVVIPIELRRTLGIAEKDALEIYVDDEKIILKKYKPNMTCQVTGEVSDDNLKLAGGKLVLSKEGAEQIISEIQNQLQNLK
stoichiometry N [11]: 4

Molecule: B5
stoichiometry N [5]: 4
